Assay results: CN111378628A (UNIV YANGZHOU, dated 2020)

Assays:
重组ESAT6蛋白 = 重组ESAT6蛋白 (Mycobacterium tuberculosis, UniProt P9WNK7 1-95); test: Western blotting
H37Rv中ESAT6抗原 = target: T1, H37Rv中ESAT6抗原 (Mycobacterium tuberculosis H37Rv, UniProt P9WNK7 2-95); test: Western blotting
T1 construct: also called H37Rv中的ESAT6抗原
T1 sequence (P9WNK7 2-95 limits assumed): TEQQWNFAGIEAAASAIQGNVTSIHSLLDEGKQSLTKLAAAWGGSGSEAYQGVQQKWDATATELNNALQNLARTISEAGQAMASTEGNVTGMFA

重组ESAT6蛋白, sequence (P9WNK7 whole entry): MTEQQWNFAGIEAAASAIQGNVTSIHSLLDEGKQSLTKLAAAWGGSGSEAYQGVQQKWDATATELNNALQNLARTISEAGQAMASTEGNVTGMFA

B1: 单克隆抗体MAb 8G4 (抗ESAT6单克隆抗体, 杂交瘤细胞株8G4, CCTCC NO:C2019287) (antibody, V domains shown)
VH: QIQLVQSGPELKRPGETVKISCKASGYTFTNYGMNWVKQAPGKGLKWMGWINTYNGVPTYTDDFKGRFAFSLETSARTAYLQIKNLKNEDMATYFCAIGGNIPPAYWGQGTLVTVSA
VL: NIMMTQSPSSLAVSAREKVTMICKSSHSVLKSSNQKNYLAWYQQKPGQSPKLLIYWASTRNSGVPDRFTGSGSGTNFTLTITSVQTEDLAVYYCHQYLSSLTFGGGTKLELK
notes: also called 单克隆抗体8G4; ESAT6单克隆抗体8G4
Does B1 bind (重组ESAT6蛋白)?
Result: binds

Does B1 bind (H37Rv中ESAT6抗原)?
Result: binds
